Holding throughout (experiment): SEC
The target of series [1] is T1, ACAD9 (wild type, without a tag) (human, UniProt Q9H845 38-621).
T1 sequence (looked up): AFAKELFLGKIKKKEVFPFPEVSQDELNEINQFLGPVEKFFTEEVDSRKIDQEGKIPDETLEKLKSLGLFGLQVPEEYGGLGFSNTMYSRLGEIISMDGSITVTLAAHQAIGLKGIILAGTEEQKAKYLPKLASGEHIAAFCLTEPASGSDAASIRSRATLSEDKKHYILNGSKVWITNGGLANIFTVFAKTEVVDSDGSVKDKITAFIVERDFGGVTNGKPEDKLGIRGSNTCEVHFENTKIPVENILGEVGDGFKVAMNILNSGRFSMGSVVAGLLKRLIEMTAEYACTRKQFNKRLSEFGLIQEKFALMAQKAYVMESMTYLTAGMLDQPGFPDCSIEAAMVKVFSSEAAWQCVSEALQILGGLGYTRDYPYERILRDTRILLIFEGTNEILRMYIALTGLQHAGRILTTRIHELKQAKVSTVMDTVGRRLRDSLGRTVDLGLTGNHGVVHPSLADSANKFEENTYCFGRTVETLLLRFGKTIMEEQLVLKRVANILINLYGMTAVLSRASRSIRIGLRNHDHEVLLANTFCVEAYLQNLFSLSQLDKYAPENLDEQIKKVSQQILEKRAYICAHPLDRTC

A further series deals with T2, ACAD9 Arg469Trp (human, UniProt Q9H845 38-621, Arg469Trp).
T2 sequence (looked up): T1 sequence (looked up) with R432W

The target of another series is T3, ACAD9 Arg518His (human, UniProt Q9H845 38-621, Arg518His).
T3 sequence (looked up): T1 sequence (looked up) with R481H

The next series has as its target T4, ACAD9 Glu426Gln (human, UniProt Q9H845 38-621, Glu426Gln).
T4 sequence (looked up): T1 sequence (looked up) with E389Q

The series “SEC” deals with the molecule itself.
In series [2] the target is T1, ACAD9 (wild type, without a tag). The source holds these as a separate data set.

This is an account of results in publication doi:10.1101/2021.01.07.425795 (bioRxiv, 2021).

Changes are numbered by the printed parent chain. Like-named read-outs stand apart in the source and are kept apart here.

B1: His6-ECSIT (natural protein, human, UniProt Q9BQ95 49-431, looked up)
chain: SSEQSLVPSPPEPRQRPTKALVPFEDLFGQAPGGERDKASFLQTVQKFAEHSVRKRGHIDFIYLALRKMREYGVERDLAVYNQLLNIFPKEVFRPRNIIQRIFVHYPRQQECGIAVLEQMENHGVMPNKETEFLLIQIFGRKSYPMLKLVRLKLWFPRFMNVNPFPVPRDLPQDPVELAMFGLRHMEPDLSARVTIYQVPLPKDSTGAADPPQPHIVGIQSPDQQAALARHNPARPVFVEGPFSLWLRNKCVYYHILRADLLPPEEREVEETPEEWNLYYPMQLDLEYVRSGWDNYEFDINEVEEGPVFAMCMAGAHDQATMAKWIQGLQETNPTLAQIPVVFRLAGSTRELQTSSAGLEEPPLPEDHQEEDDNLQRQQQGQS
Consider B1, for which the “stoichiometry N” value in series [1] was 1 mol/mol; in the series “SEC” it was 2; in series [2], 1 ECSIT chains per ACAD9 chain (one dimer with one dimer). For the same molecule, the binding result with ACAD9 Arg469Trp, with ACAD9 Arg518His and with ACAD9 Glu426Gln was “binds” each time.
